In publication PMC9957047, “A Role for the Interactions between Polδ and PCNA Revealed by Analysis of pol3-01 Yeast Mutants” (Genes, 2023):

Molecular target: T1, PCNA (Pol30) immunoprecipitated in the co-IP of Figure 2C (S. cerevisiae, UniProt P15873 1-258)
T1 construct: Pol30 (PCNA), S. cerevisiae; homotrimeric clamp of three copies of Pol30; No tag is named for PCNA in this experiment; the methods precipitate with an anti-PCNA antibody; source: S. cerevisiae, in lysate
T1 sequence (looked up): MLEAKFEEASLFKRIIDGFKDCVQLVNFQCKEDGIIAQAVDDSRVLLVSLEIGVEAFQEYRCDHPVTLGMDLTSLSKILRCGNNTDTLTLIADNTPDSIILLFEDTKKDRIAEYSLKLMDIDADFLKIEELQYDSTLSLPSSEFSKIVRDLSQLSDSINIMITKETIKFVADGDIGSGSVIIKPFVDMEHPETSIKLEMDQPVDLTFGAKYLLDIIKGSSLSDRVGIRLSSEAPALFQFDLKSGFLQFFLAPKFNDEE
Test: co-IP; PCNA immunoprecipitated from yeast extract (methods: 2 μg anti-PCNA antibody, overnight at 4 °C, washes with lysis buffer at 220 mM NaCl); level of FLAG-tagged Pol3 or Pol3-01 co-IPed measured (Figure 2C)
Details: partners not purified

- fold reduction in co-IP against Pol3: 4 fold
B1: FLAG-tagged Pol3-01 (Pol3-01-Flag) of the co-IP of Figure 2C (natural protein, S. cerevisiae, UniProt P15436 1-1097, looked up)
chain: MSEKRSLPMVDVKIDDEDTPQLEKKIKRQSIDHGVGSEPVSTIEIIPSDSFRKYNSQGFKAKDTDLMGTQLESTFEQELSQMEHDMADQEEHDLSSFERKKLPTDFDPSLYDISFQQIDAEQSVLNGIKDENTSTVVRFFGVTSEGHSVLCNVTGFKNYLYVPAPNSSDANDQEQINKFVHYLNETFDHAIDSIEVVSKQSIWGYSGDTKLPFWKIYVTYPHMVNKLRTAFERGHLSFNSWFSNGTTTYDNIAYTLRLMVDCGIVGMSWITLPKGKYSMIEPNNRVSSCQLEVSINYRNLIAHPAEGDWSHTAPLRIMSFAIACAGRIGVFPEPEYDPVIQIANVVSIAGAKKPFIRNVFTLNTCSPITGSMIFSHATEEEMLSNWRNFIIKVDPDVIIGYNTTNFDIPYLLNRAKALKVNDFPYFGRLKTVKQEIKESVFSSKAYGTRETKNVNIDGRLQLDLLQFIQREYKLRSYTLNAVSAHFLGEQKEDVHYSIISDLQNGDSETRRRLAVYCLKDAYLPLRLMEKLMALVNYTEMARVTGVPFSYLLARGQQIKVVSQLFRKCLEIDTVIPNMQSQASDDQYEGATVIEPIRGYYDVPIATLDFNSLYPSIMMAHNLCYTTLCNKATVERLNLKIDEDYVITPNGDYFVTTKRRRGILPIILDELISARKRAKKDLRDEKDPFKRDVLNGRQLALKISANSVYGFTGATVGKLPCLAISSSVTAYGRTMILKTKTAVQEKYCIKNGYKHDAVVVYGDTDSVMVKFGTTDLKEAMDLGTEAAKYVSTLFKHPINLEFEKAYFPYLLINKKRYAGLFWTNPDKFDKLDQKGLASVRRDSCSLVSIVMNKVLKKILIERNVDGALAFVRETINDILHNRVDISKLIISKTLAPNYTNPQPHAVLAERMKRREGVGPNVGDRVDYVIIGGNDKLYNRAEDPLFVLENNIQVDSRYYLTNQLQNPIISIVAPIIGDKQANGMFVVKSIKINTGSQKGGLMSFIKKVEACKSCKGPLRKGEGPLCSNCLARSGELYIKALYDVRDLEEKYSRLWTQCQRCAGNLHSEVLCSNKNCDIFYMRVKVKKELQEKVEQLSKW
notes: Pol3, catalytic subunit of DNA polymerase delta, S. cerevisiae, pol3-01 allele (D321A, E323A); the tags may be swapped in the text; source: S. cerevisiae, in lysate
